Laboratory results from patent publication US20200262877A1, “ION CHANNEL-BINDING PEPTIDES AND METHODS OF USE THEREOF” (priority 2017, published 2020).

What was measured:
GABA = assay: Ion channel panel (IonWorks Barracuda): GABA; type: cell-based; conditions: 100% = no change, <100% = inhibition
Method in brief: (§1)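 Peptides were tested in duplicate at final 20 μM and 200 nM, with concentration set by amino acid analysis, in HEPES-buffered saline. They were applied for at least 5 min to HEK293 or CHO cells transfected with each channel. Currents were expressed as % inhibition, 1-(Ipeptide/Icontrol)×100, or % activation, Ipeptide/Icontrol×100, against a channel-matched reference compound.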

5HT3a = target: T1, 5HT3a (Homo sapiens, UniProt P46098); assay: Ion channel panel (IonWorks Barracuda): 5HT3a; type: cell-based
T1 construct: host or cells: HEK293 or CHO
T1 sequence (P46098 whole entry, looked up): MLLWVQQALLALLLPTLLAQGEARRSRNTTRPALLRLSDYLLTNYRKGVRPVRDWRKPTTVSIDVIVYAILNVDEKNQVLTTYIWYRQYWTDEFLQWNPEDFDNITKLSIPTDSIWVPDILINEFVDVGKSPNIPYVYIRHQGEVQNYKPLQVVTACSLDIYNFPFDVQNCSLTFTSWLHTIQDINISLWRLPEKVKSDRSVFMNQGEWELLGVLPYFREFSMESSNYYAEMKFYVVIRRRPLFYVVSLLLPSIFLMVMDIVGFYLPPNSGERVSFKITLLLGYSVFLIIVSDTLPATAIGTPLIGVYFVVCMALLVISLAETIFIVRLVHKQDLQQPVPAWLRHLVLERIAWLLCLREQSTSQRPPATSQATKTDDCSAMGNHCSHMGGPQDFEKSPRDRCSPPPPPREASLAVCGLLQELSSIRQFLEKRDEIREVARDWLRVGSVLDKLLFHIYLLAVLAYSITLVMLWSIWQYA
Method in brief: as §1

Cav2.1 = target: T2, Cav2.1 (Homo sapiens, UniProt O00555); assay: cell-based; conditions: 100% = no change, <100% = inhibition
T2 construct: host or cells: HEK293 or CHO
Method in brief: as §1

Kv2.1 = target: T3, Kv2.1 (Homo sapiens, UniProt Q14721); assay: cell-based; conditions: 100% = no change, <100% = inhibition
T3 construct: host or cells: HEK293 or CHO
Method in brief: as §1

Cav2.2 = target: T4, Cav2.2 (Homo sapiens, UniProt Q00975); assay: cell-based; conditions: 100% = no change, <100% = inhibition
T4 construct: host or cells: HEK293 or CHO
Method in brief: as §1

α3β4 = target: T5, α3β4 (Homo sapiens, UniProt P30926+P32297); assay: Ion channel panel (IonWorks Barracuda): α3β4; type: cell-based; conditions: 100% = no change, <100% = inhibition
T5 construct: host or cells: HEK293 or CHO
Method in brief: as §1

Nav1.5 = Nav1.5 (Homo sapiens, UniProt Q14524); assay: in vitro; conditions: 100% = no change; for Activity of Nav1.5 with peptide, expressed as a percentage of the reference compound: peptide at 0.2 μM; for Activity of Nav1.5 with peptide (percentage of the reference compound): peptide at 20 μM
Method in brief: as §1

hERG = hERG (Homo sapiens, UniProt Q12809); assay: in vitro; conditions: 100% = no change, <100% = inhibition
Method in brief: as §1

TRPV1 = target: T6, TRPV1 (Homo sapiens, UniProt Q8NER1); assay: Ion channel panel (IonWorks Barracuda): TRPV1; type: cell-based; conditions: 100% = no change, <100% = inhibition
T6 construct: host or cells: HEK293 or CHO
Method in brief: as §1

NR2A = target: T7, NR2A (Homo sapiens, UniProt Q12879); assay: Ion channel panel (IonWorks Barracuda): NR2A; type: cell-based; conditions: 100% = no change, <100% = inhibition
T7 construct: host or cells: HEK293 or CHO
Method in brief: as §1

Kir2.1 = target: T8, Kir2.1 (Homo sapiens, UniProt P63252); assay: Ion channel panel (IonWorks Barracuda): Kir2.1; type: cell-based; conditions: 100% = no change, <100% = inhibition
T8 construct: host or cells: HEK293 or CHO
Method in brief: as §1

Nav1.7 = target: T9, Nav1.7 (Homo sapiens, UniProt Q15858); assay: cell-based; type: cell-based; conditions: 100% = no change; for Activity of Nav1.7 with peptide, expressed as a percentage of the reference compound: peptide at 0.2 μM; for Activity of Nav1.7 with peptide (percentage of the reference compound): peptide at 20 μM
T9 construct: host or cells: HEK293 or CHO

TRPA1 = target: T10, TRPA1 (Homo sapiens, UniProt O75762); assay: Ion channel panel (IonWorks Barracuda): TRPA1; type: cell-based; conditions: 100% = no change, <100% = inhibition
T10 construct: host or cells: HEK293 or CHO
Method in brief: as §1

NR2B = target: T11, NR2B (Homo sapiens, UniProt Q13224); assay: Ion channel panel (IonWorks Barracuda): NR2B; type: cell-based; conditions: 100% = no change, <100% = inhibition
T11 construct: host or cells: HEK293 or CHO
Method in brief: as §1

Kv1.1 = target: T12, Kv1.1 (Homo sapiens, UniProt Q09470); assay: cell-based; type: cell-based; conditions: 100% = no change, <100% = inhibition
T12 construct: host or cells: HEK293 or CHO
Method in brief: as §1

Kv1.3 = target: T13, Kv1.3 (Homo sapiens, UniProt P22001); assay: cell-based; type: cell-based; conditions: 100% = no change, <100% = inhibition
T13 construct: host or cells: HEK293 or CHO
Method in brief: as §1

Kv1.2 = target: T14, Kv1.2 (Homo sapiens, UniProt P16389); assay: cell-based; type: cell-based; conditions: 100% = no change, <100% = inhibition
T14 construct: host or cells: HEK293 or CHO
Method in brief: as §1

α4β2 = target: T15, α4β2 (Homo sapiens, UniProt P17787+P43681); assay: Ion channel panel (IonWorks Barracuda): α4β2; type: cell-based; conditions: 100% = no change, <100% = inhibition
T15 construct: host or cells: HEK293 or CHO
Method in brief: as §1

[1] = first of two Nav1.5 columns (probably TP1)
[2] = second of two Nav1.5 columns (probably TP2)
[3] = first of two Nav1.7 columns (probably TP1)
[4] = second of two Nav1.7 columns (probably TP2)

Nav1.5, sequence (Q14524 whole entry): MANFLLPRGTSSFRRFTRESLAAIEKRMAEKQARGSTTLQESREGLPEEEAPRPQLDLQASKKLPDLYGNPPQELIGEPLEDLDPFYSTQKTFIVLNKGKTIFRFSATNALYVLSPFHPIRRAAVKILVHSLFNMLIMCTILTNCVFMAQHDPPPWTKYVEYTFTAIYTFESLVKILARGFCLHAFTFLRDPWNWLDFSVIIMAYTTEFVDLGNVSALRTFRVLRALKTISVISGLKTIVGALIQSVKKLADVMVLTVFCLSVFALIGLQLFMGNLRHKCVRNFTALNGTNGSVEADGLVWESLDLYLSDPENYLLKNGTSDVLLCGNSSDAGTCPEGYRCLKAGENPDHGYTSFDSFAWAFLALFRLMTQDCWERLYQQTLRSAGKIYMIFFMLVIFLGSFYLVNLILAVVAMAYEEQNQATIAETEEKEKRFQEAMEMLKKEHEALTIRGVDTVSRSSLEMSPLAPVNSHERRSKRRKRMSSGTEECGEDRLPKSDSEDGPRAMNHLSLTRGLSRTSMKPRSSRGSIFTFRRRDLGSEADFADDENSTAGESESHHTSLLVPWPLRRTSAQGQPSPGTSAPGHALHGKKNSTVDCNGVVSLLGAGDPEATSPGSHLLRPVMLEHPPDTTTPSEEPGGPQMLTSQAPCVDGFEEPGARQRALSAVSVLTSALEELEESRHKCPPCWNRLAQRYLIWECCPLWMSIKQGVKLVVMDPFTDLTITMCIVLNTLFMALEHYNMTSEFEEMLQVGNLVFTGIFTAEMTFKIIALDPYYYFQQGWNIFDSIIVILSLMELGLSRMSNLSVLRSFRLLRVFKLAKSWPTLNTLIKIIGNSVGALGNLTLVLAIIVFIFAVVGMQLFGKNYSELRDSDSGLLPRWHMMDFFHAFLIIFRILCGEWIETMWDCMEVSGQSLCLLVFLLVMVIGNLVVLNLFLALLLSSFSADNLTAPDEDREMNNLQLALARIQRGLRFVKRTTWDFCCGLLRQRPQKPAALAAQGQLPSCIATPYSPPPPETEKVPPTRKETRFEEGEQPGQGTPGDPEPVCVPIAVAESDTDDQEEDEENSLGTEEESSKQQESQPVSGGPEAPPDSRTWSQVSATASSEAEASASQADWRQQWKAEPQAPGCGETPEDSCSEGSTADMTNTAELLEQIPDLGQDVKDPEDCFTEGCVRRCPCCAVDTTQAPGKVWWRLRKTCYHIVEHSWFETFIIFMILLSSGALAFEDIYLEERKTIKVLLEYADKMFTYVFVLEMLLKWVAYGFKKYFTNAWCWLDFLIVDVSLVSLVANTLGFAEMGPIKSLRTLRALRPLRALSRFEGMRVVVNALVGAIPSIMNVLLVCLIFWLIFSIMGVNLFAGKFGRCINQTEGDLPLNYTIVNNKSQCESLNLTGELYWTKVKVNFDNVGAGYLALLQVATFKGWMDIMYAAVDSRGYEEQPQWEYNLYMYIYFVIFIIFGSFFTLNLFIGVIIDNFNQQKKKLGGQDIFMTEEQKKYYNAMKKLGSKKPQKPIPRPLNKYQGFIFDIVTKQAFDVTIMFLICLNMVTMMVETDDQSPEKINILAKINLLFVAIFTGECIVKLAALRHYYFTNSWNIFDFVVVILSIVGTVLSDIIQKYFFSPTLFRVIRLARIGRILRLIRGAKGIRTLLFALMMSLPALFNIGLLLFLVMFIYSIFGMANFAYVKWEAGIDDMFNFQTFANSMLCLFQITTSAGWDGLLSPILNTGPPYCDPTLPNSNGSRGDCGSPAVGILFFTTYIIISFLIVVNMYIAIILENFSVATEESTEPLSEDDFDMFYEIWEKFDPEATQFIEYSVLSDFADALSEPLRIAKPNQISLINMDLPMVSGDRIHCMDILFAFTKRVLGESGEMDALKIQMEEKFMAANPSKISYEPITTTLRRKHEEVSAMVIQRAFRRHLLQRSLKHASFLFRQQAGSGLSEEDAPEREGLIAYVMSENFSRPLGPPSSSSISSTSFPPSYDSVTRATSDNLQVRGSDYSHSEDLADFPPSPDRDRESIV
T9 sequence (Q15858 whole entry): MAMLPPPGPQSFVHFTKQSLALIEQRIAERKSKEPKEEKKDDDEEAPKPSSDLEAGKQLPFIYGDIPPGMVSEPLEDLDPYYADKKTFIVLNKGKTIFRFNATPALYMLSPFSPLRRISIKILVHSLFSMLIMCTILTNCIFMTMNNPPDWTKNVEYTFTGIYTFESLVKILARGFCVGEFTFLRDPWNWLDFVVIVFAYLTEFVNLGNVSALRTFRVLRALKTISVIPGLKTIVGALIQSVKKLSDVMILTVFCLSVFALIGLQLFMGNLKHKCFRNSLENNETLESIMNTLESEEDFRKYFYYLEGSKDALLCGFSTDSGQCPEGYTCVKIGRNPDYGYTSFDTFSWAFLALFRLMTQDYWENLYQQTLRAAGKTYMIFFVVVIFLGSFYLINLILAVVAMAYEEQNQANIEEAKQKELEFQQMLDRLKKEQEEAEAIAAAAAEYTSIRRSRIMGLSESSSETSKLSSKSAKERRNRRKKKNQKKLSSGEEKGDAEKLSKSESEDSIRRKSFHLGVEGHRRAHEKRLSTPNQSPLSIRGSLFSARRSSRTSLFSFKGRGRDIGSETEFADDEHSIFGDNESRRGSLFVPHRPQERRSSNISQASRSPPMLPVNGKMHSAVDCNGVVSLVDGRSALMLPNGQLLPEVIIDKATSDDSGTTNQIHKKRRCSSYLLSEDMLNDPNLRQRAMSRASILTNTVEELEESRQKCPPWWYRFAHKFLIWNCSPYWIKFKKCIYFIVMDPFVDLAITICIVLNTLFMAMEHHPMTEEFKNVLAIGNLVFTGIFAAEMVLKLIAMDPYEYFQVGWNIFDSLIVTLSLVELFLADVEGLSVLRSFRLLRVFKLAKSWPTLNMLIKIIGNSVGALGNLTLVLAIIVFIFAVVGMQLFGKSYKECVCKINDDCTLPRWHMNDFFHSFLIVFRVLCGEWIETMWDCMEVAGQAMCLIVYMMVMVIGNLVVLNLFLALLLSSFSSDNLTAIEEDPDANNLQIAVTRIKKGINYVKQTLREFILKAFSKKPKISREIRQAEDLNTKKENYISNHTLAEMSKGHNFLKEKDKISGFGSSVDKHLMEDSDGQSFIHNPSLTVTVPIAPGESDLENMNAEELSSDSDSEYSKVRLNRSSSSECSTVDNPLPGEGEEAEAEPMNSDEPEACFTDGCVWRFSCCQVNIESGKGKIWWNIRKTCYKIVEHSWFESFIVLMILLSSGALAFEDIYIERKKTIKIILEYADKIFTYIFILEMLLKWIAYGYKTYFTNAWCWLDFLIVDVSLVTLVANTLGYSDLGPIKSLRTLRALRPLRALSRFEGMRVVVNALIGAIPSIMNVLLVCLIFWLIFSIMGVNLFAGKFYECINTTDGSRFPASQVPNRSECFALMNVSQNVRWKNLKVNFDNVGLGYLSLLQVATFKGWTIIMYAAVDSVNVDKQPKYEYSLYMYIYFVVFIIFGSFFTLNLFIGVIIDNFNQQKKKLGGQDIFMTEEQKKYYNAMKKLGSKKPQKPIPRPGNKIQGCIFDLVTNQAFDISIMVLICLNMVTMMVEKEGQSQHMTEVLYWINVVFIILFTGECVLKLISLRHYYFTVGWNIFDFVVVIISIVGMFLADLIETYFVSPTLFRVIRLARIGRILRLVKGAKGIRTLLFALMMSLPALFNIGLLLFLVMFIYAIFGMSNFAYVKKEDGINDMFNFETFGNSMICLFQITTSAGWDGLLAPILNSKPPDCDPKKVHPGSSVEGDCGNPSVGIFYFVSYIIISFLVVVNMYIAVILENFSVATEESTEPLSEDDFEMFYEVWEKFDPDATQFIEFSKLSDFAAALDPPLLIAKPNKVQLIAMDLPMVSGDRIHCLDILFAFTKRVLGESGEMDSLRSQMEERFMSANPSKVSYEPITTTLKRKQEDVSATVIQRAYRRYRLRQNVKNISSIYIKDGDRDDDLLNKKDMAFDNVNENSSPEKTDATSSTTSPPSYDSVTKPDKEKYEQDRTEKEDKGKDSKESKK
T8 sequence (P63252 whole entry): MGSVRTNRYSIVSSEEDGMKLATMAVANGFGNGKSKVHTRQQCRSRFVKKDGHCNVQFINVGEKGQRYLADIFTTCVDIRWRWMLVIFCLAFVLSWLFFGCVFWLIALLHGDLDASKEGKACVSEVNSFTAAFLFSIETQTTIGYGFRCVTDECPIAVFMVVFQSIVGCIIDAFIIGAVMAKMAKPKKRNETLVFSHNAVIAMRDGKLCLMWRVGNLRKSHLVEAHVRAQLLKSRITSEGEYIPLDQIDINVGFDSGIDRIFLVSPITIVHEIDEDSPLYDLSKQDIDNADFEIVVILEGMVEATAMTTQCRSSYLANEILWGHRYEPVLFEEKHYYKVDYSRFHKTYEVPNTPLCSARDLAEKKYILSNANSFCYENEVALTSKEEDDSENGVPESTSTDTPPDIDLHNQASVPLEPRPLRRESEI
T14 sequence (P16389 whole entry): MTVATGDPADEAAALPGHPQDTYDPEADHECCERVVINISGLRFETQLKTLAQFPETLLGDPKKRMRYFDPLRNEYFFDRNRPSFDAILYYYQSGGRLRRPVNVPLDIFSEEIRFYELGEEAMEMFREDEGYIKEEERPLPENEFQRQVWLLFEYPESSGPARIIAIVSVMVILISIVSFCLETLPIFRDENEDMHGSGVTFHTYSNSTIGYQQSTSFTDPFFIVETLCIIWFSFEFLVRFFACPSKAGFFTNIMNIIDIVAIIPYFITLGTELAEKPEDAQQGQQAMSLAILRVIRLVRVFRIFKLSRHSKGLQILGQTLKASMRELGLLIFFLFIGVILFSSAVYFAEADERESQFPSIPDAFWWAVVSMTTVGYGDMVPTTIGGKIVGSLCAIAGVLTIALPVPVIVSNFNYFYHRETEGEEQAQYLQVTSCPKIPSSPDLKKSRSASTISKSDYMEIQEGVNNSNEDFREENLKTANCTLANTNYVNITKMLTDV

21 (GSAEIIRCSGTRECYAPCQKLTGCLNAKCMNKACKCYGCV) [compound 21]
Activity of GABA with peptide, expressed as a percentage of the reference compound (GABA; peptide at 0.2 μM): 111%
Activity of GABA with peptide (percentage of the reference compound) (GABA; peptide at 20 μM): 123%
Activity of 5HT3a with peptide (percentage of the reference compound) (5HT3a): 91%
Activity of 5HT3a with peptide, expressed as a percentage of the reference compound (5HT3a): 87%
Activity of Cav2.1 with peptide, expressed as a percentage of the reference compound (Cav2.1; peptide at 0.2 μM): 103%
Activity of Cav2.1 with peptide (percentage of the reference compound) (Cav2.1; peptide at 20 μM): 106%
Activity of Kv2.1 with peptide, expressed as a percentage of the reference compound (Kv2.1; peptide at 0.2 μM): 110%
Activity of Kv2.1 with peptide (percentage of the reference compound) (Kv2.1; peptide at 20 μM): 108%
Activity of Cav2.2 with peptide, expressed as a percentage of the reference compound (Cav2.2; peptide at 0.2 μM): 98%
Activity of Cav2.2 with peptide (percentage of the reference compound) (Cav2.2; peptide at 20 μM): 105%
Activity of a3b4 with peptide, expressed as a percentage of the reference compound (α3β4; peptide at 0.2 μM): 102%
Activity of a3b4 with peptide (percentage of the reference compound) (α3β4; peptide at 20 μM): 93%
Activity of Nav1.5 with peptide, expressed as a percentage of the reference compound (Nav1.5; [1]): 108%
Activity of Nav1.5 with peptide, expressed as a percentage of the reference compound (Nav1.5; [2]): 105%
Activity of Nav1.5 with peptide (percentage of the reference compound) (Nav1.5; [1]): 96%
Activity of Nav1.5 with peptide (percentage of the reference compound) (Nav1.5; [2]): 91%
Activity of hERG with peptide, expressed as a percentage of the reference compound (hERG; peptide at 0.2 μM): 109%
Activity of hERG with peptide (percentage of the reference compound) (hERG; peptide at 20 μM): 72%
Activity of TRPV1 with peptide, expressed as a percentage of the reference compound (TRPV1; peptide at 0.2 μM): 106%
Activity of TRPV1 with peptide (percentage of the reference compound) (TRPV1; peptide at 20 μM): 86%
Activity of NR2A with peptide, expressed as a percentage of the reference compound (NR2A; peptide at 0.2 μM): 105%
Activity of NR2A with peptide (percentage of the reference compound) (NR2A; peptide at 20 μM): 103%
Activity of Kir2.1 with peptide, expressed as a percentage of the reference compound (Kir2.1; peptide at 0.2 μM): 105%
Activity of Kir2.1 with peptide (percentage of the reference compound) (Kir2.1; peptide at 20 μM): 101%
Activity of Nav1.7 with peptide, expressed as a percentage of the reference compound (Nav1.7; [3]): 112%
Activity of Nav1.7 with peptide, expressed as a percentage of the reference compound (Nav1.7; [4]): 120%
Activity of Nav1.7 with peptide (percentage of the reference compound) (Nav1.7; [3]): 105%
Activity of Nav1.7 with peptide (percentage of the reference compound) (Nav1.7; [4]): 123%
Activity of TRPA1 with peptide, expressed as a percentage of the reference compound (TRPA1; peptide at 0.2 μM): 119%
Activity of TRPA1 with peptide (percentage of the reference compound) (TRPA1; peptide at 20 μM): 95%
Activity of NR2B with peptide, expressed as a percentage of the reference compound (NR2B; peptide at 0.2 μM): 113%
Activity of NR2B with peptide (percentage of the reference compound) (NR2B; peptide at 20 μM): 105%
Activity of Kv1.1 with peptide, expressed as a percentage of the reference compound (Kv1.1; peptide at 0.2 μM): 106%
Activity of Kv1.1 with peptide (percentage of the reference compound) (Kv1.1; peptide at 20 μM): 98%
Activity of Kv1.3 with peptide, expressed as a percentage of the reference compound (Kv1.3; peptide at 0.2 μM): 65%
Activity of Kv1.3 with peptide (percentage of the reference compound) (Kv1.3; peptide at 20 μM): 5%
Activity of Kv1.2 with peptide, expressed as a percentage of the reference compound (Kv1.2; peptide at 0.2 μM): 52%
Activity of Kv1.2 with peptide (percentage of the reference compound) (Kv1.2; peptide at 20 μM): 36%
Activity of a4b2 with peptide, expressed as a percentage of the reference compound (α4β2; peptide at 0.2 μM): 102%
Activity of a4b2 with peptide (percentage of the reference compound) (α4β2; peptide at 20 μM): 85%
